Target: the molecule itself
Assay: crystal structure

B1: Human TRAAK A198E, crystallisation construct (C-terminally truncated, N104Q/N108Q) (domain or fragment)
chain: MTTAPQEPPARPLQAGSGAGPAPGRAMRSTTLLALLALVLLYLVSGALVFRALEQPHEQQAQRELGEVREKFLRAHPCVSDQELGLLIKEVADALGGGADPETQSTSQSSHSAWDLGSAFFFSGTIITTIGYGNVALRTDAGRLFCIFYALVGIPLFGILLAGVGDRLGSSLRHGIGHIEAIFLKWHVPPELVRVLSEMLFLLIGCLLFVLTPTFVFCYMEDWSKLEAIYFVIVTLTTVGFGDYVAGADPRQDSPAYQPLVWFWILLGLAYFASVLTTIGNWLRVVSRRTRAEMGGLTAQSNSLEVLFQ
stoichiometry N: 2

Source: paper PMC8448962 (Neuron, 2021)
